From the supplement of paper PMC7125110
± gives the standard error. Fewer inactive variants are shown than the library holds.

B1: glmS ribozyme (parent)
chain: AUAAAAGCGCCAGAACUACAGAAAUGUAGUUGACGAGGAGGAGGUUUAUCGAAUUUUCGGCGGAUGCCUCCAAA

Key:
Conditions in all cases: with glucosamine-6-phosphate
[1] = variants of: B1; assay: self-cleavage kobs at 640 uM GlcN6P; higher = faster cleavage; RNA array
Outline: (§1)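 The measurements used barcoded ribozyme variants on sequenced MiSeq chips, transcribed in situ by E. coli RNA polymerase and tracked at 37 °C with a hybridised Cy3 probe. Glucosamine-6-phosphate, 40 μM to 10 mM in HEPES/KCl/Mg(OAc)2 buffer, was flowed in while tiles were imaged over ~14 h. Baseline-normalised signals, also normalised to non-cleaving reference variants, gave per-tile medians that were fit to one- or two-exponential decays for kobs. kcat and KM resulted from weighted Michaelis–Menten fits across concentrations.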

[2] = variants of: B1; assay: self-cleavage kobs at 2500 uM GlcN6P; higher = faster cleavage; RNA array
Outline: as §1

[3] = variants of: B1; assay: self-cleavage kobs at 10000 uM GlcN6P; higher = faster cleavage; RNA array
Outline: as §1

Row | Variant | self-cleavage kobs at 640 uM GlcN6P [1] [s⁻¹] | self-cleavage kobs at 2500 uM GlcN6P [2] [s⁻¹] | self-cleavage kobs at 10000 uM GlcN6P [3] [s⁻¹]
1 | G44C U57G C58U | < 1e-05 |  | 
2 | A6G G32C G51C | < 1e-05 |  | 
3 | A6G G59A C67A | < 1e-05 | < 1e-05 | 
4 | G7U A14U A52C C68A | 0.00249 ± 0.001 |  | 
5 | C10A A42G U47C C50G C70U | < 1e-05 |  | 
6 | C8G G29C A42G G51C C58G G59A | < 1e-05 |  | 
7 | U69C C70G | 4.82e-05 ± 1.6e-05 |  | 
8 | G9A U55C | < 1e-05 | < 1e-05 | 
9 | A14U G37A A52U G60U | < 1e-05 |  | 
10 | C16U G43A C67G | 0.000254 ± 6.6e-05 |  | 0.000419 ± 0.0001
11 | A33U G44U U46G | < 1e-05 | < 1e-05 | 
12 | C11G A14U A52U C68G | 0.000115 ± 3.6e-05 |  | 
13 | U56G U57G G66U | < 1e-05 | < 1e-05 | 
14 | C11U G35C U46A U69G | < 1e-05 | < 1e-05 | 
15 | A14G A15U A48U U69C | 6.32e-05 ± 2.6e-05 |  | 7.49e-05 ± 2e-05
16 | G13A C16G G59C C68A | 0.000133 ± 3.8e-05 |  | 
17 | A33C G66C C68G C70A | < 1e-05 |  | 
18 | U30C C34A | < 1e-05 |  | < 1e-05
19 | C11A U55G C61G G62C | < 1e-05 |  | 
20 | G13C G35U A52U | < 1e-05 |  | 
21 | U45G U46C C71U | 0.000925 ± 0.00024 | 0.00445 ± 0.001 | 
22 | C8G C50G A52U | < 1e-05 |  | 
23 | A15G A33G A53U | < 1e-05 |  | 
24 | A14U A15U C68U | 8.97e-05 ± 2.4e-05 | 0.000111 ± 3.2e-05 | 

Row | Variant | self-cleavage kobs at 640 uM GlcN6P [1] [s⁻¹] | self-cleavage kobs at 2500 uM GlcN6P [2] [s⁻¹] | self-cleavage kobs at 10000 uM GlcN6P [3] [s⁻¹]
25 | C16U G38C | < 1e-05 |  | 
26 | C11G A12U G41U A53G C67G | < 1e-05 |  | 
27 | G13U C61U C70G | < 1e-05 |  | 
28 | G32U A64C C71A | < 1e-05 | < 1e-05 | 
29 | C11U G13A A48G U56C | < 1e-05 |  | 
30 | U30G C50U A64G G66U | < 1e-05 | < 1e-05 | 
31 | U31G U49G C67A | 4.09e-05 ± 1.4e-05 |  | 
32 | G32C U45G G60A C68G | < 1e-05 | < 1e-05 | 
33 | C8U U56G G63A | < 1e-05 |  | 
34 | A33U G41U G60C | < 1e-05 |  | 
35 | C8G A15G A33C | < 1e-05 | < 1e-05 | 
36 | A6U C67U C70G | 0.000211 ± 6.3e-05 |  | 
37 | A39C G51A A64G | < 1e-05 |  | 
38 | C11U G41C C67U | < 1e-05 |  | 
39 | G7U U31C C50G | 0.000324 ± 0.00016 |  | 
40 | G9U C34A G59U G63A | < 1e-05 | < 1e-05 | 
41 | G9C G38U U45C | < 1e-05 |  | 
42 | C11U G38C C50U A52C | < 1e-05 |  | 
43 | G7C G59C G66C | < 1e-05 |  | < 1e-05
44 | G29U U45C U55G | 3.35e-05 ± 1.5e-05 | 7.82e-05 ± 1.1e-05 | 
45 | A39G U45A U57C | 0.000107 ± 2.6e-05 | 0.000294 ± 7.7e-05 | 
46 | A33C C34A U57G | < 1e-05 |  | 
47 | G9U A36C A39G C70U | < 1e-05 |  | 
48 | G41A U49C G60U | < 1e-05 |  | 

Row | Variant | self-cleavage kobs at 640 uM GlcN6P [1] [s⁻¹] | self-cleavage kobs at 2500 uM GlcN6P [2] [s⁻¹] | self-cleavage kobs at 10000 uM GlcN6P [3] [s⁻¹]
49 | G51A G66A U69A | 0.000177 ± 7.9e-05 |  | 
50 | C16U G35C G37A | < 1e-05 |  | 
51 | A6C C34G C61U | < 1e-05 | < 1e-05 | 
52 | A39C U45G U56G | 7.85e-05 ± 2.3e-05 |  | 
53 | A6C C11A U47C | < 1e-05 | < 1e-05 | 
54 | G13C A33C | < 1e-05 | < 1e-05 | 
55 | A53U U56A C71U | 0.00121 ± 0.00015 | 0.00323 ± 0.00064 | 
56 | U56C C61U C71G | < 1e-05 |  | 
57 | A33G A36U G38C | < 1e-05 |  | 
58 | C8G C58U | < 1e-05 | < 1e-05 | < 1e-05
59 | G62U G63U G66C | < 1e-05 | < 1e-05 | 
60 | G32U U47A A53G U56A C71U | 7.91e-05 ± 2.4e-05 | 0.000259 ± 6.2e-05 | 
61 | G51C U56G | < 1e-05 | < 1e-05 | < 1e-05
62 | C8U A33U G60U | < 1e-05 | < 1e-05 | 
63 | G7U G40C U49A | < 1e-05 |  | 
64 | A12C U46C C67G | 6.73e-05 ± 1.7e-05 | 0.000179 ± 5.3e-05 | 
65 | A12U G59C U69A | 0.00122 ± 0.00048 |  | 
66 | U30G A48U U65A U69G C70U | 4.35e-05 ± 2e-05 |  | 
67 | C16A G32A C34A | < 1e-05 | < 1e-05 | < 1e-05
68 | A12C U46A G62C | < 1e-05 |  | 
69 | G13C G29U G41U C68A C70A | < 1e-05 |  | 
70 | G7C C8A U30C A33C | < 1e-05 | < 1e-05 | < 1e-05
